Reference: the supplement of paper PMC5998384

What was measured:
[1] = system: HeLa Kyoto; experiment: solubility in G1/S (NP-40 vs SDS abundance) (log2 ratio); higher = more soluble; settings: cell cycle stage: G1/S
[2] = system: HeLa Kyoto; experiment: melting temperature (median over replicates), in situ; higher = more thermally stable
[3] = system: HeLa Kyoto; experiment: solubility change mitosis vs G1/S (difference of NP-40 vs SDS log2 ratios) (log2 ratio difference); higher = more soluble in mitosis
[4] = system: HeLa Kyoto; experiment: thermal stability score vs G1/S (z-score of summed log2 fold changes over temperatures); higher = more thermally stable than in G1/S
[5] = cell cycle stage: early G1 (4.5 h after nocodazole release)
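Throughout, for melting temperature (median over replicates), in situ: HeLa Kyoto cells synchronized by double thymidine or nocodazole block, proteins quantified by TMT10plex mass spectrometry, three independent biological replicates.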
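Throughout, for solubility change mitosis vs G1/S (difference of NP-40 vs SDS log2 ratios): synchronized HeLa Kyoto cells (double thymidine block for G1/S, nocodazole release for mitosis), protein amounts in NP-40 versus SDS lysates quantified by mass spectrometry, three biological replicates.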
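Throughout, for solubility in G1/S (NP-40 vs SDS abundance): HeLa Kyoto cells arrested at G1/S by double thymidine block, proteins quantified by TMT10plex mass spectrometry in mild NP-40 versus SDS extracts, three biological replicates.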
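Throughout, for thermal stability score vs G1/S (z-score of summed log2 fold changes over temperatures): synchronized HeLa Kyoto cells, proteins quantified by TMT10plex mass spectrometry, three biological replicates, mitosis taken 0.5 h after nocodazole release, G1/S directly after double thymidine block.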

| Sequence | solubility in G1/S (log2) [1] | melting temperature ([2]; cell cycle stage: G1/S) | melting temperature ([2]; cell cycle stage: mitosis) | solubility change mitosis (log2) [3] | thermal stability score [4, 5] | thermal stability score ([4]; cell cycle stage: mitosis) |
| --- | --- | --- | --- | --- | --- | --- |
| MSMPDAMPLPGVGEELKQAKEIEDAEKYSFMATVTKAPKKQIQFADDMQEFTKFPTKTGRRSLSRSISQSSTDSYSSAASYTDSSDDEVSPREKQQTNSKGSSNFCVKNIKQAEFGRREIEIAEQDMSALISLRKRAQGEKPLAGAKIVGCTHITAQTAVLIETLCALGAQCRWSACNIYSTQNEVAAALAEAGVAVFAWKGESEDDFWWCIDRCVNMDGWQANMILDDGGDLTHWVYKKYPNVFKKIRGIVEESVTGVHRLYQLSKAGKLCVPAMNVNDSVTKQKFDNLYCCRESILDGLKRTTDVMFGGKQVVVCGYGEVGKGCCAALKALGAIVYITEIDPICALQACMDGFRVVKLNEVIRQVDVVITCTGNKNVVTREHLDRMKNSCIVCNMGHSNTEIDVTSLRTPELTWERVRSQVDHVIWPDGKRVVLLAEGRLLNLSCSTVPTFVLSITATTQALALIELYNAPEGRYKQDVYLLPKKMDEYVASLHLPSFDAHLTELTDDQAKYLGLNKNGPFKPNYYRY [AHCYL1] | -0.111 | 56.4 °C | 54.6 °C | -0.119 | -5.66 | -9.49 |
| MSNEVETSATNGQPDQQAAPKAPSKKEKKKGPEKTDEYLLARFKGDGVKYKAKLIGIDDVPDARGDKMSQDSMMKLKGMAAAGRSQGQHKQRIWVNISLSGIKIIDEKTGVIEHEHPVNKISFIARDVTDNRAFGYVCGGEGQHQFFAIKTGQQAEPLVVDLKDLFQVIYNVKKKEEEKKKIEEASKAVENGSEALMILDDQTNKLKSGVDQMDLFGDMSTPPDLNSPTESKDILLVDLNSEIDTNQNSLRENPFLTNGITSCSLPRPTPQASFLPENAFSANLNFFPTPNPDPFRDDPFTQPDQSTPSSFDSLKSPDQKKENSSSSSTPLSNGPLNGDVDYFGQQFDQISNRTGKQEAQAGPWPFSSSQTQPAVRTQNGVSEREQNGFSVKSSPNPFVGSPPKGLSIQNGVKQDLESSVQSSPHDSIAIIPPPQSTKPGRGRRTAKSSANDLLASDIFAPPVSEPSGQASPTGQPTALQPNPLDLFKTSAPAPVGPLVGLGGVTVTLPQAGPWNTASLVFNQSPSMAPGAMMGGQPSGFSQPVIFGTSPAVSGWNQPSPFAASTPPPVPVVWGPSASVAPNAWSTTSPLGNPFQSNIFPAPAVSTQPPSMHSSLLVTPPQPPPRAGPPKDISSDAFTALDPLGDKEIKDVKEMFKDFQLRQPPAVPARKGEQTSSGTLSAFASYFNSKVGIPQENADHDDFDANQLLNKINEPPKPAPRQVSLPVTKSTDNAFENPFFKDSFGSSQASVASSQPVSSEMYRDPFGNPFA [DAB2] | 0.277 | 48.5 °C | 50.3 °C | -0.113 | 2.68 | 5.04 |
| MSNRVVCREASHAGSWYTASGPQLNAQLEGWLSQVQSTKRPARAIIAPHAGYTYCGSCAAHAYKQVDPSITRRIFILGPSHHVPLSRCALSSVDIYRTPLYDLRIDQKIYGELWKTGMFERMSLQTDEDEHSIEMHLPYTAKAMESHKDEFTIIPVLVGALSESKEQEFGKLFSKYLADPSNLFVVSSDFCHWGQRFRYSYYDESQGEIYRSIEHLDKMGMSIIEQLDPVSFSNYLKKYHNTICGRHPIGVLLNAITELQKNGMNMSFSFLNYAQSSQCRNWQDSSVSYAAGALTVH [MEMO1] | 0.029 | 53.7 °C | 54.2 °C | -0.0409 | -0.361 | -0.452 |
| MSNVSEERRKRQQNIKEGLQFIQSPLSYPGTQEQYAVYLRALVRNLFNEGNDVYREHDWNNSISQYTEALNIADYAKSEEILIPKEIIEKLYINRIACYSNMGFHDKVLEDCNIVLSLNASNCKALYRKSKALSDLGRYKKAYDAVAKCSLAVPQDEHVIKLTQELAQKLGFKIRKAYVRAELSLKSVPGDGATKALNHSVEDIEPDLLTPRQEAVPVVSLPAPSFSHEVGSELASVPVMPLTSILPLQVEESALPSAVLANGGKMPFTMPEAFLDDGDMVLGDELDDLLDSAPETNETVMPSALVRGPLQTASVSPSMPFSASLLGTLPIGARYAPPPSFSEFYPPLTSSLEDFCSSLNSFSMSESKRDLSTSTSREGTPLNNSNSSLLLMNGPGSLFASENFLGISSQPRNDFGNFFGSAVTKPSSSVTPRHPLEGTHELRQACQICFVKSGPKLMDFTYHANIDHKCKKDILIGRIKNVEDKSWKKIRPRPTKTNYEGPYYICKDVAAEEECRYSGHCTFAYCQEEIDVWTLERKGAFSREAFFGGNGKINLTVFKLLQEHLGEFIFLCEKCFDHKPRMISKRNKDNSTACSHPVTKHEFEDNKCLVHILRETTVKYSKIRSFHGQCQLDLCRHEVRYGCLREDECFYAHSLVELKVWIMQNETGISHDAIAQESKRYWQNLEANVPGAQVLGNQIMPGFLNMKIKFVCAQCLRNGQVIEPDKNRKYCSAKARHSWTKDRRAMRVMSIERKKWMNIRPLPTKKQMPLQFDLCNHIASGKKCQYVGNCSFAHSPEEREVWTYMKENGIQDMEQFYELWLKSQKNEKSEDIASQSNKENGKQIHMPTDYAEVTVDFHCWMCGKNCNSEKQWQGHISSEKHKEKVFHTEDDQYCWQHRFPTGYFSICDRYMNGTCPEGNSCKFAHGNAELHEWEERRDALKMKLNKARKDHLIGPNDNDFGKYSFLFKDLN [ZC3H7A] | -0.49 | 48.5 °C | 47.7 °C | 0.169 | 0.548 | 2.36 |
| MSPTISHKDSSRQRRPGNFSHSLDMKSGPLPPGGWDDSHLDSAGREGDREALLGDTGTGDFLKAPQSFRAELSSILLLLFLYVLQGIPLGLAGSIPLILQSKNVSYTDQAFFSFVFWPFSLKLLWAPLVDAVYVKNFGRRKSWLVPTQYILGLFMIYLSTQVDRLLGNTDDRTPDVIALTVAFFLFEFLAATQDIAVDGWALTMLSRENVGYASTCNSVGQTAGYFLGNVLFLALESADFCNKYLRFQPQPRGIVTLSDFLFFWGTVFLITTTLVALLKKENEVSVVKEETQGITDTYKLLFAIIKMPAVLTFCLLILTAKIGFSAADAVTGLKLVEEGVPKEHLALLAVPMVPLQIILPLIISKYTAGPQPLNTFYKAMPYRLLLGLEYALLVWWTPKVEHQGGFPIYYYIVVLLSYALHQVTVYSMYVSIMAFNAKVSDPLIGGTYMTLLNTVSNLGGNWPSTVALWLVDPLTVKECVGASNQNCRTPDAVELCKKLGGSCVTALDGYYVESIICVFIGFGWWFFLGPKFKKLQDEGSSSWKCKRNN [SLC33A1] | -0.0645 | 58.5 °C | 57.9 °C | -0.141 | -1.24 | -1.12 |
| MSQSGAVSCCPGATNGSLGRSDGVAKMSPKDLFEQRKKYSNSNVIMHETSQYHVQHLATFIMDKSEAITSVDDAIRKLVQLSSKEKIWTQEMLLQVNDQSLRLLDIESQEELEDFPLPTVQRSQTVLNQLRYPSVLLLVCQDSEQSKPDVHFFHCDEVEAELVHEDIESALADCRLGKKMRPQTLKGHQEKIRQRQSILPPPQGPAPIPFQHRGGDSPEAKNRVGPQVPLSEPGFRRRESQEEPRAVLAQKIEKETQILNCALDDIEWFVARLQKAAEAFKQLNQRKKGKKKGKKAPAEGVLTLRARPPSEGEFIDCFQKIKLAINLLAKLQKHIQNPSAAELVHFLFGPLDLIVNTCSGPDIARSVSCPLLSRDAVDFLRGHLVPKEMSLWESLGESWMRPRSEWPREPQVPLYVPKFHSGWEPPVDVLQEAPWEVEGLASAPIEEVSPVSRQSIRNSQKHSPTSEPTPPGDALPPVSSPHTHRGYQPTPAMAKYVKILYDFTARNANELSVLKDEVLEVLEDGRQWWKLRSRSGQAGYVPCNILGEARPEDAGAPFEQAGQKYWGPASPTHKLPPSFPGNKDELMQHMDEVNDELIRKISNIRAQPQRHFRVERSQPVSQPLTYESGPDEVRAWLEAKAFSPRIVENLGILTGPQLFSLNKEELKKVCGEEGVRVYSQLTMQKAFLEKQQSGSELEELMNKFHSMNQRRGEDS [EPS8L2] | 0.468 | 50.4 °C | 50.1 °C | -0.0548 | 0.00646 | 0.475 |
| MSRDRFRSRGGGGGGFHRRGGGGGRGGLHDFRSPPPGMGLNQNRGPMGPGPGQSGPKPPIPPPPPHQQQQQPPPQQPPPQQPPPHQPPPHPQPHQQQQPPPPPQDSSKPVVAQGPGPAPGVGSAPPASSSAPPATPPTSGAPPGSGPGPTPTPPPAVTSAPPGAPPPTPPSSGVPTTPPQAGGPPPPPAAVPGPGPGPKQGPGPGGPKGGKMPGGPKPGGGPGLSTPGGHPKPPHRGGGEPRGGRQHHPPYHQQHHQGPPPGGPGGRSEEKISDSEGFKANLSLLRRPGEKTYTQRCRLFVGNLPADITEDEFKRLFAKYGEPGEVFINKGKGFGFIKLESRALAEIAKAELDDTPMRGRQLRVRFATHAAALSVRNLSPYVSNELLEEAFSQFGPIERAVVIVDDRGRSTGKGIVEFASKPAARKAFERCSEGVFLLTTTPRPVIVEPLEQLDDEDGLPEKLAQKNPMYQKERETPPRFAQHGTFEYEYSQRWKSLDEMEKQQREQVEKNMKDAKDKLESEMEDAYHEHQANLLRQDLMRRQEELRRMEELHNQEMQKRKEMQLRQEEERRRREEEMMIRQREMEEQMRRQREESYSRMGYMDPRERDMRMGGGGAMNMGDPYGSGGQKFPPLGGGGGIGYEANPGVPPATMSGSMMGSDMRTERFGQGGAGPVGGQGPRGMGPGTPAGYGRGREEYEGPNKKPRF [SFPQ] | -0.264 | 47.7 °C | 48.9 °C | 0.67 | 4.77 | 7.88 |
| MSRFPAVAGRAPRRQEEGERSRDLQEERLSAVCIADREEKGCTSQEGGTTPTFPIQKQRKKIIQAVRDNSFLIVTGNTGSGKTTQLPKYLYEAGFSQHGMIGVTQPRKVAAISVAQRVAEEMKCTLGSKVGYQVRFDDCSSKETAIKYMTDGCLLKHILGDPNLTKFSVIILDEAHERTLTTDILFGLLKKLFQEKSPNRKEHLKVVVMSATMELAKLSAFFGNCPIFDIPGRLYPVREKFCNLIGPRDRENTAYIQAIVKVTMDIHLNEMAGDILVFLTGQFEIEKSCELLFQMAESVDYDYDVQDTTLDGLLILPCYGSMTTDQQRRIFLPPPPGIRKCVISTNISATSLTIDGIRYVVDGGFVKQLNHNPRLGLDILEVVPISKSEALQRSGRAGRTSSGKCFRIYSKDFWNQCMPDHVIPEIKRTSLTSVVLTLKCLAIHDVIRFPYLDPPNERLILEALKQLYQCDAIDRSGHVTRLGLSMVEFPLPPHLTCAVIKAASLDCEDLLLPIAAMLSVENVFIRPVDPEYQKEAEQRHRELAAKAGGFNDFATLAVIFEQCKSSGAPASWCQKHWIHWRCLFSAFRVEAQLRELIRKLKQQSDFPKETFEGPKHEVLRRCLCAGYFKNVARRSVGRTFCTMDGRGSPVHIHPSSALHEQETKLEWIIFHEVLVTTKVYARIVCPIRYEWVRDLLPKLHEFNAHDLSSVARREVREDARRRWTNKENVKQLKDGISKDVLKKMQRRNDDKSISDARARFLERKQQRTQDHSDTRKETG [DHX40] | -0.176 | 51.7 °C | 50.2 °C | -0.071 | 0.738 | 1.62 |
